Measurements published in patent publication US20170114338.

Anthrax lethal factor (Product #169, List Biological Laboratories, Inc)
Peak area Average, 2 hour digest, LF 5 pg/ml plasma (LBL 10081): 9150 peak area | Peak area Average, 2 hour digest, LF 10 pg/ml plasma (LBL 10081): 10300 peak area | Peak area Average, 2 hour digest, LF 20 pg/ml plasma (LBL 10081): 15900 peak area | Peak area Average, 2 hour digest, LF 50 pg/ml plasma (LBL 10081): 33700 peak area | Peak area Average, 3.5 hour digest, LF 5 pg/ml plasma (LBL 10081): 12300 peak area | Peak area Average, 3.5 hour digest, LF 10 pg/ml plasma (LBL 10081): 15900 peak area | Peak area Average, 3.5 hour digest, LF 20 pg/ml plasma (LBL 10081): 24200 peak area | Peak area Average, 3.5 hour digest, LF 50 pg/ml plasma (LBL 10081): 49100 peak area | Peak area Average, 5 hour digest, LF 5 pg/ml plasma (LBL 10081): 15000 peak area | Peak area Average, 5 hour digest, LF 10 pg/ml plasma (LBL 10081): 22300 peak area | Peak area Average, 5 hour digest, LF 20 pg/ml plasma (LBL 10081): 32900 peak area | Peak area Average, 5 hour digest, LF 50 pg/ml plasma (LBL 10081): 66700 peak area | Peak area Average, overnight digest (RT), LF 5 pg/ml plasma (LBL 10081): 26900 peak area | Peak area Average, overnight digest (RT), LF 10 pg/ml plasma (LBL 10081): 36200 peak area | Peak area Average, overnight digest (RT), LF 20 pg/ml plasma (LBL 10081): 57900 peak area | Peak area Average, overnight digest (RT), LF 50 pg/ml plasma (LBL 10081): 130000 peak area | Peak area, 2 hour digest, LF 5 pg/ml plasma, rep 1 (LBL 10081): 9410 peak area | Peak area, 2 hour digest, LF 5 pg/ml plasma, rep 2 (LBL 10081): 8890 peak area | Peak area, 2 hour digest, LF 10 pg/ml plasma, rep 1 (LBL 10081): 10700 peak area | Peak area, 2 hour digest, LF 10 pg/ml plasma, rep 2 (LBL 10081): 9970 peak area | Peak area, 2 hour digest, LF 20 pg/ml plasma, rep 1 (LBL 10081): 16900 peak area | Peak area, 2 hour digest, LF 20 pg/ml plasma, rep 2 (LBL 10081): 14900 peak area | Peak area, 2 hour digest, LF 50 pg/ml plasma, rep 1 (LBL 10081): 33700 peak area | Peak area, 2 hour digest, LF 50 pg/ml plasma, rep 2 (LBL 10081): 33700 peak area | Peak area, 3.5 hour digest, LF 5 pg/ml plasma, rep 1 (LBL 10081): 11500 peak area | Peak area, 3.5 hour digest, LF 5 pg/ml plasma, rep 2 (LBL 10081): 13200 peak area | Peak area, 3.5 hour digest, LF 10 pg/ml plasma, rep 1 (LBL 10081): 16500 peak area | Peak area, 3.5 hour digest, LF 10 pg/ml plasma, rep 2 (LBL 10081): 15300 peak area | Peak area, 3.5 hour digest, LF 20 pg/ml plasma, rep 1 (LBL 10081): 24000 peak area | Peak area, 3.5 hour digest, LF 20 pg/ml plasma, rep 2 (LBL 10081): 24300 peak area | Peak area, 3.5 hour digest, LF 50 pg/ml plasma, rep 1 (LBL 10081): 49700 peak area | Peak area, 3.5 hour digest, LF 50 pg/ml plasma, rep 2 (LBL 10081): 48400 peak area | Peak area, 5 hour digest, LF 5 pg/ml plasma, rep 1 (LBL 10081): 14800 peak area | Peak area, 5 hour digest, LF 5 pg/ml plasma, rep 2 (LBL 10081): 15100 peak area | Peak area, 5 hour digest, LF 10 pg/ml plasma, rep 1 (LBL 10081): 22200 peak area | Peak area, 5 hour digest, LF 10 pg/ml plasma, rep 2 (LBL 10081): 22400 peak area | Peak area, 5 hour digest, LF 20 pg/ml plasma, rep 1 (LBL 10081): 31600 peak area | Peak area, 5 hour digest, LF 20 pg/ml plasma, rep 2 (LBL 10081): 34200 peak area | Peak area, 5 hour digest, LF 50 pg/ml plasma, rep 1 (LBL 10081): 67200 peak area | Peak area, 5 hour digest, LF 50 pg/ml plasma, rep 2 (LBL 10081): 66100 peak area | Peak area, overnight digest (RT), LF 5 pg/ml plasma, rep 1 (LBL 10081): 28500 peak area | Peak area, overnight digest (RT), LF 5 pg/ml plasma, rep 2 (LBL 10081): 25300 peak area | Peak area, overnight digest (RT), LF 10 pg/ml plasma, rep 1 (LBL 10081): 36500 peak area | Peak area, overnight digest (RT), LF 10 pg/ml plasma, rep 2 (LBL 10081): 36000 peak area | Peak area, overnight digest (RT), LF 20 pg/ml plasma, rep 1 (LBL 10081): 58200 peak area | Peak area, overnight digest (RT), LF 20 pg/ml plasma, rep 2 (LBL 10081): 57600 peak area | Peak area, overnight digest (RT), LF 50 pg/ml plasma, rep 1 (LBL 10081): 136000 peak area | Peak area, overnight digest (RT), LF 50 pg/ml plasma, rep 2 (LBL 10081): 124000 peak area | Slope (Peak Area/pg LF), 2 hr digest (Peak Area/pg LF) (LBL 10081): 553 | Slope (Peak Area/pg LF), 3.5 hr digest (Peak Area/pg LF) (LBL 10081): 811 | Slope (Peak Area/pg LF), 5 hr digest (Peak Area/pg LF) (LBL 10081): 1130 | Slope (Peak Area/pg LF), Overnight digest (RT) (Peak Area/pg LF) (LBL 10081): 2280 | Substrate RFUs after 5 hrs digest, LF 10 pg/ml in 1:10 diluted plasma (LBL 10081): 140 RFU | Substrate RFUs after 5 hrs digest, LF 20 pg/ml in 1:10 diluted plasma (LBL 10081): 137 RFU | Substrate RFUs after 5 hrs digest, LF 50 pg/ml in 1:10 diluted plasma (LBL 10081): 137 RFU | Substrate RFUs after 5 hrs digest, LF 100 pg/ml in 1:10 diluted plasma (LBL 10081): 141 RFU | Substrate RFUs after 5 hrs digest, LF 200 pg/ml in 1:10 diluted plasma (LBL 10081): 155 RFU | Substrate RFUs after 5 hrs digest, LF 500 pg/ml in 1:10 diluted plasma (LBL 10081): 190 RFU | Substrate RFUs after 5 hrs digest, LF 1000 pg/ml in 1:10 diluted plasma (LBL 10081): 256 RFU | Substrate RFUs after 24 hrs digest, LF 10 pg/ml in 1:10 diluted plasma (LBL 10081): 147 RFU | Substrate RFUs after 24 hrs digest, LF 20 pg/ml in 1:10 diluted plasma (LBL 10081): 149 RFU | Substrate RFUs after 24 hrs digest, LF 50 pg/ml in 1:10 diluted plasma (LBL 10081): 152 RFU | Substrate RFUs after 24 hrs digest, LF 100 pg/ml in 1:10 diluted plasma (LBL 10081): 161 RFU | Substrate RFUs after 24 hrs digest, LF 200 pg/ml in 1:10 diluted plasma (LBL 10081): 186 RFU | Substrate RFUs after 24 hrs digest, LF 500 pg/ml in 1:10 diluted plasma (LBL 10081): 248 RFU | Substrate RFUs after 24 hrs digest, LF 1000 pg/ml in 1:10 diluted plasma (LBL 10081): 354 RFU | Substrate RFUs, 1 hour, LF 10 pg/ml (LBL 10081): 89 RFU | Substrate RFUs, 1 hour, LF 20 pg/ml (LBL 10081): 87 RFU | Substrate RFUs, 1 hour, LF 50 pg/ml (LBL 10081): 88 RFU | Substrate RFUs, 1 hour, LF 100 pg/ml (LBL 10081): 88 RFU | Substrate RFUs, 1 hour, LF 200 pg/ml (LBL 10081): 92 RFU | Substrate RFUs, 1 hour, LF 500 pg/ml (LBL 10081): 97 RFU | Substrate RFUs, 1 hour, LF 1000 pg/ml (LBL 10081): 114 RFU | Substrate RFUs, 2 hours, LF 10 pg/ml (LBL 10081): 94 RFU | Substrate RFUs, 2 hours, LF 20 pg/ml (LBL 10081): 93 RFU | Substrate RFUs, 2 hours, LF 50 pg/ml (LBL 10081): 95 RFU | Substrate RFUs, 2 hours, LF 100 pg/ml (LBL 10081): 96 RFU | Substrate RFUs, 2 hours, LF 200 pg/ml (LBL 10081): 101 RFU | Substrate RFUs, 2 hours, LF 500 pg/ml (LBL 10081): 116 RFU | Substrate RFUs, 2 hours, LF 1000 pg/ml (LBL 10081): 148 RFU | Substrate RFUs, 3 hours, LF 10 pg/ml (LBL 10081): 98 RFU | Substrate RFUs, 3 hours, LF 20 pg/ml (LBL 10081): 99 RFU | Substrate RFUs, 3 hours, LF 50 pg/ml (LBL 10081): 100 RFU | Substrate RFUs, 3 hours, LF 100 pg/ml (LBL 10081): 103 RFU | Substrate RFUs, 3 hours, LF 200 pg/ml (LBL 10081): 111 RFU | Substrate RFUs, 3 hours, LF 500 pg/ml (LBL 10081): 131 RFU | Substrate RFUs, 3 hours, LF 1000 pg/ml (LBL 10081): 177 RFU | Substrate RFUs, 4 hours, LF 10 pg/ml (LBL 10081): 100 RFU | Substrate RFUs, 4 hours, LF 20 pg/ml (LBL 10081): 99 RFU | Substrate RFUs, 4 hours, LF 50 pg/ml (LBL 10081): 102 RFU | Substrate RFUs, 4 hours, LF 100 pg/ml (LBL 10081): 105 RFU | Substrate RFUs, 4 hours, LF 200 pg/ml (LBL 10081): 115 RFU | Substrate RFUs, 4 hours, LF 500 pg/ml (LBL 10081): 142 RFU | Substrate RFUs, 4 hours, LF 1000 pg/ml (LBL 10081): 202 RFU | Substrate RFUs, 5 hours, LF 10 pg/ml (LBL 10081): 103 RFU | Substrate RFUs, 5 hours, LF 20 pg/ml (LBL 10081): 102 RFU | Substrate RFUs, 5 hours, LF 50 pg/ml (LBL 10081): 106 RFU | Substrate RFUs, 5 hours, LF 100 pg/ml (LBL 10081): 111 RFU | Substrate RFUs, 5 hours, LF 200 pg/ml (LBL 10081): 125 RFU | Substrate RFUs, 5 hours, LF 500 pg/ml (LBL 10081): 157 RFU | Substrate RFUs, 5 hours, LF 1000 pg/ml (LBL 10081): 224 RFU | Substrate RFUs after 5 hrs digest, LF 10 pg/ml in 1:10 diluted plasma (LBL 10097): 224 RFU | Substrate RFUs after 5 hrs digest, LF 20 pg/ml in 1:10 diluted plasma (LBL 10097): 222 RFU | Substrate RFUs after 5 hrs digest, LF 50 pg/ml in 1:10 diluted plasma (LBL 10097): 249 RFU | Substrate RFUs after 5 hrs digest, LF 100 pg/ml in 1:10 diluted plasma (LBL 10097): 242 RFU | Substrate RFUs after 5 hrs digest, LF 200 pg/ml in 1:10 diluted plasma (LBL 10097): 256 RFU | Substrate RFUs after 5 hrs digest, LF 500 pg/ml in 1:10 diluted plasma (LBL 10097): 301 RFU | Substrate RFUs after 5 hrs digest, LF 1000 pg/ml in 1:10 diluted plasma (LBL 10097): 399 RFU | Substrate RFUs after 24 hrs digest, LF 10 pg/ml in 1:10 diluted plasma (LBL 10097): 227 RFU | Substrate RFUs after 24 hrs digest, LF 20 pg/ml in 1:10 diluted plasma (LBL 10097): 223 RFU | Substrate RFUs after 24 hrs digest, LF 50 pg/ml in 1:10 diluted plasma (LBL 10097): 245 RFU | Substrate RFUs after 24 hrs digest, LF 100 pg/ml in 1:10 diluted plasma (LBL 10097): 258 RFU | Substrate RFUs after 24 hrs digest, LF 200 pg/ml in 1:10 diluted plasma (LBL 10097): 286 RFU | Substrate RFUs after 24 hrs digest, LF 500 pg/ml in 1:10 diluted plasma (LBL 10097): 379 RFU | Substrate RFUs after 24 hrs digest, LF 1000 pg/ml in 1:10 diluted plasma (LBL 10097): 559 RFU
